The values below come from patent US20250152717A1 (published 2025).

The test concerns the target T1, KRAS G12V (same sequence in NRAS and HRAS G12V) peptide on HLA-A*11:01 (human).
T1 peptide: VVGAVGVGK
The test can be described thus: stated without data.

B1: TCR 11N6 (TCR, V domains shown)
Valpha: QQGEEDPQALSIQEGENATMNCSYKTSINNLQWYRQNSGRGLVHLILIRSNEREKHSGRLRVTLDTSKKSSSLLITASRAADTASYFCATDPMNTNAGKSTFGDGTTLTVKP
Vbeta: GVAQSPRYKIIEKRQSVAFWCNPISGHATLYWYQQILGQGPKLLIQFQNNGVVDDSQLPKDRFSAERLKGVDSTLKIQPAKLEDSAVYLCASSPYGGSVSYEQYFGPGTRLTVT
With B1, the binding result is on record as “recognises”.
